assay: Directed evolution of UGT76G1, conversion of Rebaudioside D to Rebaudioside M (round 1); assay type: biochemical; conditions: 0.5 mM Rebaudioside D, 2.5 mM UDP-Glucose, 100 μL fresh lysate, 30° C., pH 7.2
How it was run: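 UGT76G1 variants carrying 3-5 designed mutations were expressed in E. coli BL21(DE3) (pET30a+, 44 h at 20° C) and lysed. Lysate was reacted with 0.5 mM Reb D, 2.5 mM UDP-glucose, 3 mM MgCl2 in 50 mM phosphate pH 7.2 at 30° C; HPLC-CAD sampling at 2, 4, 7, 24 h gave conversion and initial rate.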

Molecule | Conversion Reb D to Reb M after 24 h (%) | initial rate (Reb M area/min)
UGT76G1var82: UGT76G1 variant, mutations E224D_L243A_F265L_R334H_A352G (protein, UniProt Q6VAB4 1-458, looked up, variant E224D L243A F265L R334H A352G) UDP-glycosyltransferase 76G1: MENKTETTVRRRRRIILFPVPFQGHINPILQLANVLYSKGFSITIFHTNFNKPKTSNYPHFTFRFILDNDPQDERISNLPTHGPLAGMRIPIINEHGADELRRELELLMLASEEDEEVSCLITDALWYFAQSVADSLNLRRLVLMTSSLFNFHAHVSLPQFDELGYLDPDDKTRLEEQASGFPMLKVKDIKSAYSNWQILKEILGKMIKQTKASSGVIWNSFKDLEESELETVIREIPAPSFAIPLPKHLTASSSSLLDHDRTVLQWLDQQPPSSVLYVSFGSTSEVDEKDFLEIARGLVDSKQSFLWVVRPGFVKGSTWVEPLPDGFLGERGHIVKWVPQQEVLAHGAIGGFWTHSGWNSTLESVCEGVPMIFSDFGLDQPLNARYMSDVLKVGVYLENGWERGEIANAIRRVMVDEEGEYIRQNARVLKQKADVSLMKGGSSYESLESLVSYISSL | 1.1 | 2.5E+05
UGT76G1var6: UGT76G1 variant, mutations Q266S_S357N_I373L (protein, UniProt Q6VAB4 1-458, looked up, variant Q266S S357N I373L) UDP-glycosyltransferase 76G1: MENKTETTVRRRRRIILFPVPFQGHINPILQLANVLYSKGFSITIFHTNFNKPKTSNYPHFTFRFILDNDPQDERISNLPTHGPLAGMRIPIINEHGADELRRELELLMLASEEDEEVSCLITDALWYFAQSVADSLNLRRLVLMTSSLFNFHAHVSLPQFDELGYLDPDDKTRLEEQASGFPMLKVKDIKSAYSNWQILKEILGKMIKQTKASSGVIWNSFKELEESELETVIREIPAPSFLIPLPKHLTASSSSLLDHDRTVFSWLDQQPPSSVLYVSFGSTSEVDEKDFLEIARGLVDSKQSFLWVVRPGFVKGSTWVEPLPDGFLGERGRIVKWVPQQEVLAHGAIGAFWTHNGWNSTLESVCEGVPMLFSDFGLDQPLNARYMSDVLKVGVYLENGWERGEIANAIRRVMVDEEGEYIRQNARVLKQKADVSLMKGGSSYESLESLVSYISSL | 0.5 | 1.8E+06
UGT76G1var84: UGT76G1 variant, mutations F22L_Q266S_F314S_A352G_S357C (protein, UniProt Q6VAB4 1-458, looked up, variant F22L Q266S F314S A352G S357C) UDP-glycosyltransferase 76G1: MENKTETTVRRRRRIILFPVPLQGHINPILQLANVLYSKGFSITIFHTNFNKPKTSNYPHFTFRFILDNDPQDERISNLPTHGPLAGMRIPIINEHGADELRRELELLMLASEEDEEVSCLITDALWYFAQSVADSLNLRRLVLMTSSLFNFHAHVSLPQFDELGYLDPDDKTRLEEQASGFPMLKVKDIKSAYSNWQILKEILGKMIKQTKASSGVIWNSFKELEESELETVIREIPAPSFLIPLPKHLTASSSSLLDHDRTVFSWLDQQPPSSVLYVSFGSTSEVDEKDFLEIARGLVDSKQSFLWVVRPGSVKGSTWVEPLPDGFLGERGRIVKWVPQQEVLAHGAIGGFWTHCGWNSTLESVCEGVPMIFSDFGLDQPLNARYMSDVLKVGVYLENGWERGEIANAIRRVMVDEEGEYIRQNARVLKQKADVSLMKGGSSYESLESLVSYISSL | 1.2 | 2.3E+05
UGT76G1var88: UGT76G1 variant, mutations A239V_T284I_V310I_Q342K_L379A (protein, UniProt Q6VAB4 1-458, looked up, variant A239V T284I V310I Q342K L379A) UDP-glycosyltransferase 76G1: MENKTETTVRRRRRIILFPVPFQGHINPILQLANVLYSKGFSITIFHTNFNKPKTSNYPHFTFRFILDNDPQDERISNLPTHGPLAGMRIPIINEHGADELRRELELLMLASEEDEEVSCLITDALWYFAQSVADSLNLRRLVLMTSSLFNFHAHVSLPQFDELGYLDPDDKTRLEEQASGFPMLKVKDIKSAYSNWQILKEILGKMIKQTKASSGVIWNSFKELEESELETVIREIPVPSFLIPLPKHLTASSSSLLDHDRTVFQWLDQQPPSSVLYVSFGSISEVDEKDFLEIARGLVDSKQSFLWVIRPGFVKGSTWVEPLPDGFLGERGRIVKWVPQKEVLAHGAIGAFWTHSGWNSTLESVCEGVPMIFSDFGADQPLNARYMSDVLKVGVYLENGWERGEIANAIRRVMVDEEGEYIRQNARVLKQKADVSLMKGGSSYESLESLVSYISSL | 1.6 | 3.8E+05
UGT76G1var87: UGT76G1 variant, mutations S241I_L243A_V300A_F314S_N409R (protein, UniProt Q6VAB4 1-458, looked up, variant S241I L243A V300A F314S N409R) UDP-glycosyltransferase 76G1: MENKTETTVRRRRRIILFPVPFQGHINPILQLANVLYSKGFSITIFHTNFNKPKTSNYPHFTFRFILDNDPQDERISNLPTHGPLAGMRIPIINEHGADELRRELELLMLASEEDEEVSCLITDALWYFAQSVADSLNLRRLVLMTSSLFNFHAHVSLPQFDELGYLDPDDKTRLEEQASGFPMLKVKDIKSAYSNWQILKEILGKMIKQTKASSGVIWNSFKELEESELETVIREIPAPIFAIPLPKHLTASSSSLLDHDRTVFQWLDQQPPSSVLYVSFGSTSEVDEKDFLEIARGLADSKQSFLWVVRPGSVKGSTWVEPLPDGFLGERGRIVKWVPQQEVLAHGAIGAFWTHSGWNSTLESVCEGVPMIFSDFGLDQPLNARYMSDVLKVGVYLENGWERGEIARAIRRVMVDEEGEYIRQNARVLKQKADVSLMKGGSSYESLESLVSYISSL | 35.7 | 2.1E+07
UGT76G1var89: UGT76G1 variant, mutations F41L_E229A_E231A_F265L_P272A (protein, UniProt Q6VAB4 1-458, looked up, variant F41L E229A E231A F265L P272A) UDP-glycosyltransferase 76G1: MENKTETTVRRRRRIILFPVPFQGHINPILQLANVLYSKGLSITIFHTNFNKPKTSNYPHFTFRFILDNDPQDERISNLPTHGPLAGMRIPIINEHGADELRRELELLMLASEEDEEVSCLITDALWYFAQSVADSLNLRRLVLMTSSLFNFHAHVSLPQFDELGYLDPDDKTRLEEQASGFPMLKVKDIKSAYSNWQILKEILGKMIKQTKASSGVIWNSFKELEESALATVIREIPAPSFLIPLPKHLTASSSSLLDHDRTVLQWLDQQAPSSVLYVSFGSTSEVDEKDFLEIARGLVDSKQSFLWVVRPGFVKGSTWVEPLPDGFLGERGRIVKWVPQQEVLAHGAIGAFWTHSGWNSTLESVCEGVPMIFSDFGLDQPLNARYMSDVLKVGVYLENGWERGEIANAIRRVMVDEEGEYIRQNARVLKQKADVSLMKGGSSYESLESLVSYISSL | 1.2 | 2.1E+05
UGT76G1var85: UGT76G1 variant, mutations T284L_G348P_F377C_P382M_N409R (protein, UniProt Q6VAB4 1-458, looked up, variant T284L G348P F377C P382M N409R) UDP-glycosyltransferase 76G1: MENKTETTVRRRRRIILFPVPFQGHINPILQLANVLYSKGFSITIFHTNFNKPKTSNYPHFTFRFILDNDPQDERISNLPTHGPLAGMRIPIINEHGADELRRELELLMLASEEDEEVSCLITDALWYFAQSVADSLNLRRLVLMTSSLFNFHAHVSLPQFDELGYLDPDDKTRLEEQASGFPMLKVKDIKSAYSNWQILKEILGKMIKQTKASSGVIWNSFKELEESELETVIREIPAPSFLIPLPKHLTASSSSLLDHDRTVFQWLDQQPPSSVLYVSFGSLSEVDEKDFLEIARGLVDSKQSFLWVVRPGFVKGSTWVEPLPDGFLGERGRIVKWVPQQEVLAHPAIGAFWTHSGWNSTLESVCEGVPMIFSDCGLDQMLNARYMSDVLKVGVYLENGWERGEIARAIRRVMVDEEGEYIRQNARVLKQKADVSLMKGGSSYESLESLVSYISSL | 1.8 | 4.0E+05
UGT76G1var83: UGT76G1 variant, mutations I43V_Q342E_S357N_S375R_L379G (protein, UniProt Q6VAB4 1-458, looked up, variant I43V Q342E S357N S375R L379G) UDP-glycosyltransferase 76G1: MENKTETTVRRRRRIILFPVPFQGHINPILQLANVLYSKGFSVTIFHTNFNKPKTSNYPHFTFRFILDNDPQDERISNLPTHGPLAGMRIPIINEHGADELRRELELLMLASEEDEEVSCLITDALWYFAQSVADSLNLRRLVLMTSSLFNFHAHVSLPQFDELGYLDPDDKTRLEEQASGFPMLKVKDIKSAYSNWQILKEILGKMIKQTKASSGVIWNSFKELEESELETVIREIPAPSFLIPLPKHLTASSSSLLDHDRTVFQWLDQQPPSSVLYVSFGSTSEVDEKDFLEIARGLVDSKQSFLWVVRPGFVKGSTWVEPLPDGFLGERGRIVKWVPQEEVLAHGAIGAFWTHNGWNSTLESVCEGVPMIFRDFGGDQPLNARYMSDVLKVGVYLENGWERGEIANAIRRVMVDEEGEYIRQNARVLKQKADVSLMKGGSSYESLESLVSYISSL | 0.5 | 4.3E+04
UGT76G1var86: UGT76G1 variant, mutations E224A_T284L_V396F_Y397E_I407V (protein, UniProt Q6VAB4 1-458, looked up, variant E224A T284L V396F Y397E I407V) UDP-glycosyltransferase 76G1: MENKTETTVRRRRRIILFPVPFQGHINPILQLANVLYSKGFSITIFHTNFNKPKTSNYPHFTFRFILDNDPQDERISNLPTHGPLAGMRIPIINEHGADELRRELELLMLASEEDEEVSCLITDALWYFAQSVADSLNLRRLVLMTSSLFNFHAHVSLPQFDELGYLDPDDKTRLEEQASGFPMLKVKDIKSAYSNWQILKEILGKMIKQTKASSGVIWNSFKALEESELETVIREIPAPSFLIPLPKHLTASSSSLLDHDRTVFQWLDQQPPSSVLYVSFGSLSEVDEKDFLEIARGLVDSKQSFLWVVRPGFVKGSTWVEPLPDGFLGERGRIVKWVPQQEVLAHGAIGAFWTHSGWNSTLESVCEGVPMIFSDFGLDQPLNARYMSDVLKVGFELENGWERGEVANAIRRVMVDEEGEYIRQNARVLKQKADVSLMKGGSSYESLESLVSYISSL | 1.6 | 3.8E+05
UGT76G1var90: UGT76G1 variant, mutations E231A_S241I_S274G_Y397Q_Q425E (protein, UniProt Q6VAB4 1-458, looked up, variant E231A S241I S274G Y397Q Q425E) UDP-glycosyltransferase 76G1: MENKTETTVRRRRRIILFPVPFQGHINPILQLANVLYSKGFSITIFHTNFNKPKTSNYPHFTFRFILDNDPQDERISNLPTHGPLAGMRIPIINEHGADELRRELELLMLASEEDEEVSCLITDALWYFAQSVADSLNLRRLVLMTSSLFNFHAHVSLPQFDELGYLDPDDKTRLEEQASGFPMLKVKDIKSAYSNWQILKEILGKMIKQTKASSGVIWNSFKELEESELATVIREIPAPIFLIPLPKHLTASSSSLLDHDRTVFQWLDQQPPGSVLYVSFGSTSEVDEKDFLEIARGLVDSKQSFLWVVRPGFVKGSTWVEPLPDGFLGERGRIVKWVPQQEVLAHGAIGAFWTHSGWNSTLESVCEGVPMIFSDFGLDQPLNARYMSDVLKVGVQLENGWERGEIANAIRRVMVDEEGEYIRENARVLKQKADVSLMKGGSSYESLESLVSYISSL | 34.5 | 1.9E+07
